From patent US20060153775A1
Starred links: 1 amine or outer side, 2 acyl side, 3 side chain; linkers in the order of their positions; H or OH if unused. Primed or numbered codes have the meaning given here. DPPE′ = dipalmitoylphosphatidylethanolamine; Glutaryl = O=C(CCCC(=O)[*:2])[*:1]

What was measured:
[1] = target: binding target for TKPPR on HAEC (human aortic endothelial cells); experiment: static bubble binding to HAEC treated 4 h with 10 ng/mL TNFα, 5% composition
[2] = target: binding target for TKPPR on HAEC (human aortic endothelial cells); experiment: static bubble binding to HAEC, 5% composition, no competitor
[3] = target: binding target for TKPPR on HAEC (human aortic endothelial cells); experiment: static bubble binding to HAEC, 5% D47, no competitor
[4] = target: binding target for TKPPR on HAEC (human aortic endothelial cells); experiment: static bubble binding to HAEC, 5% composition, no competitor (same control as Table 13)
[5] = target: binding target for TKPPR on RAEC (rabbit aortic endothelial cells); experiment: static bubble binding to RAEC, 5% composition, no competitor
[6] = target: binding target for TKPPR on HAEC (human aortic endothelial cells); experiment: static bubble binding to HAEC, manual count
[7] = target: binding target for TKPPR on HAEC (human aortic endothelial cells); experiment: static bubble binding to HAEC, 1% composition, no competition
[8] = target: binding target for TKPPR on HAEC (human aortic endothelial cells); experiment: static bubble binding to HAEC, 5% composition, no competition
[9] = target: binding target for TKPPR on HAEC (human aortic endothelial cells); experiment: static bubble binding to HAEC, 1% D47, no competitor
[10] = target: binding target for TKPPR on HAEC (human aortic endothelial cells); experiment: static bubble binding to HAEC, 5% composition, untreated cells
[11] = target: KB cells (human epidermoid carcinoma cell line); experiment: static bubble binding to KB cells, 5% composition
[12] = target: binding target for TKPPR on HAEC (human aortic endothelial cells); experiment: static bubble binding to HAEC, 2% D47, no competitor
[13] = target: binding target for TKPPR on HAEC (human aortic endothelial cells); experiment: static bubble binding to HAEC, 10% D47, no competitor
[14] = target: binding target for TKPPR on HAEC (human aortic endothelial cells); experiment: static bubble binding to HAEC, 5% composition
[15] = target: binding target for TKPPR on HAEC (human aortic endothelial cells); experiment: static bubble binding to HAEC treated 4 h with 1 ng/mL TNFα, 5% composition
[16] = target: binding target for TKPPR on HAEC (human aortic endothelial cells); experiment: static bubble binding to HAEC treated 4 h with 5 ng/mL TNFα, 5% composition
[17] = target: binding target for TKPPR on HAEC (human aortic endothelial cells); experiment: competition of TKPPR-bead binding to HAEC; free TKPPR 25 µM
[18] = target: binding target for TKPPR on HAEC (human aortic endothelial cells); experiment: competition of 1% D47 bubble binding to HAEC; free TKPPR 100 µM
[19] = target: binding target for TKPPR on HAEC (human aortic endothelial cells); experiment: competition of 2% D47 bubble binding to HAEC; TKPPR 25 µM
[20] = target: binding target for TKPPR on HAEC (human aortic endothelial cells); experiment: competition of 5% D47 bubble binding to HAEC; free TKPPR 100 µM
[21] = target: binding target for TKPPR on HAEC (human aortic endothelial cells); experiment: competition of 1% composition bubble binding to HAEC; free TKPPR 25 µM
[22] = target: binding target for TKPPR on HAEC (human aortic endothelial cells); experiment: competition of 1% D56 bubble binding to HAEC; TKPPR 10 µM
[23] = target: binding target for TKPPR on HAEC (human aortic endothelial cells); experiment: competition of TKPPR-bead binding to HAEC; free TKPPR 100 µM
[24] = target: binding target for TKPPR on HAEC (human aortic endothelial cells); experiment: competition of 5% composition bubble binding to HAEC; free TKPPR 100 µM
[25] = target: binding target for TKPPR on HAEC (human aortic endothelial cells); experiment: competition of 1% D47 bubble binding to HAEC; free TKPPR 200 µM
VEGF receptors on HUVECs = experiment: competition with 125I-VEGF for binding to HUVECs
[26] = target: binding target for TKPPR on HAEC (human aortic endothelial cells); experiment: competition of 10% D47 bubble binding to HAEC; free TKPPR 200 µM
[27] = target: binding target for TKPPR on HAEC (human aortic endothelial cells); experiment: competition of 5% composition bubble binding to HAEC
[28] = target: binding target for TKPPR on HAEC (human aortic endothelial cells); experiment: competition of 1% D47 bubble binding to HAEC; TKPPR 100 µM
[29] = target: binding target for TKPPR on HAEC (human aortic endothelial cells); experiment: competition of 1% D47 bubble binding to HAEC; free TKPPR 10 µM
[30] = target: binding target for TKPPR on HAEC (human aortic endothelial cells); experiment: competition of 10% D47 bubble binding to HAEC; free TKPPR 10 µM
[31] = target: binding target for TKPPR on HAEC (human aortic endothelial cells); experiment: competition of 1% D56 bubble binding to HAEC; TKPPR 25 µM
[32] = target: binding target for TKPPR on HAEC (human aortic endothelial cells); experiment: competition of TKPPR-bead binding to HAEC; free TKPPR 500 µM
[33] = target: binding target for TKPPR on HAEC (human aortic endothelial cells); experiment: competition of 1% D47 bubble binding to HAEC; TKPPR 50 µM
[34] = target: binding target for TKPPR on HAEC (human aortic endothelial cells); experiment: competition of 1% D47 bubble binding to HAEC; TKPPR 25 µM
[35] = target: binding target for TKPPR on RAEC (rabbit aortic endothelial cells); experiment: competition of 5% composition bubble binding to RAEC; free TKPPR 100 µM
[36] = target: binding target for TKPPR on HAEC (human aortic endothelial cells); experiment: competition of 1% composition bubble binding to HAEC; free TKPPR 50 µM
[37] = target: binding target for TKPPR on HAEC (human aortic endothelial cells); experiment: competition of 5% D47 bubble binding to HAEC; free TKPPR 10 µM
[38] = target: binding target for TKPPR on HAEC (human aortic endothelial cells); experiment: competition of 1% composition bubble binding to HAEC; free TKPPR 100 µM
[39] = target: binding target for TKPPR on HAEC (human aortic endothelial cells); experiment: competition of TKPPR-bead binding to HAEC; free TKPPR 50 µM
[40] = target: binding target for TKPPR on HAEC (human aortic endothelial cells); experiment: competition of 5% D47 bubble binding to HAEC; free TKPPR 200 µM
[41] = target: binding target for TKPPR on HAEC (human aortic endothelial cells); experiment: competition of TKPPR-bead binding to HAEC; free TKPPR 10 µM
[42] = target: binding target for TKPPR on HAEC (human aortic endothelial cells); experiment: competition of 5% D47 bubble binding to HAEC; free TKPPR 50 µM
[43] = target: binding target for TKPPR on HAEC (human aortic endothelial cells); experiment: competition of 1% composition bubble binding to HAEC
[44] = target: binding target for TKPPR on HAEC (human aortic endothelial cells); experiment: competition of 1% D56 bubble binding to HAEC; TKPPR 2.5 µM
[45] = target: binding target for TKPPR on HAEC (human aortic endothelial cells); experiment: competition of 1% D56 bubble binding to HAEC; TKPPR 50 µM
[46] = target: binding target for TKPPR on HAEC (human aortic endothelial cells); experiment: competition of 10% D47 bubble binding to HAEC; free TKPPR 100 µM
[47] = target: binding target for TKPPR on HAEC (human aortic endothelial cells); experiment: competition of TKPPR-bead binding to HAEC; free TKPPR 200 µM
[48] = target: binding target for TKPPR on HAEC (human aortic endothelial cells); experiment: competition of 1% D47 bubble binding to HAEC; free TKPPR 50 µM
[49] = target: binding target for TKPPR on HAEC (human aortic endothelial cells); experiment: competition of 1% D47 bubble binding to HAEC; TKPPR 5 µM
[50] = target: binding target for TKPPR on HAEC (human aortic endothelial cells); experiment: competition of 10% D47 bubble binding to HAEC; free TKPPR 50 µM
[51] = target: binding target for TKPPR on HAEC (human aortic endothelial cells); experiment: competition of 1% composition bubble binding to HAEC; free TKPPR 5 µM
[52] = target: binding target for TKPPR on HAEC (human aortic endothelial cells); experiment: competition of 1% D47 bubble binding to HAEC; TKPPR 2.5 µM
[53] = target: binding target for TKPPR on HAEC (human aortic endothelial cells); experiment: competition of 1% composition bubble binding to HAEC; free TKPPR 10 µM
[54] = target: binding target for TKPPR on HAEC (human aortic endothelial cells); experiment: competition of 1% D47 bubble binding to HAEC; TKPPR 10 µM

Binder: {DPPE′-Glutaryl}-GTKPPR-OH (also: held in phospholipid shell of microbubbles) [gas-filled microbubbles containing DPPE-Glu-GTKPPR (D47), composition I of Example 5]
- TKPPR-Bubbles bound [1]: 1020 bubbles
- Bubbles Bound [2]: 1250 bubbles
- HAEC bubbles bound [2]: 1420 bubbles
- Bubbles Bound- 5% [3]: 2780 bubbles
- Bubbles Bound [4]: 1250 bubbles
- RAEC bubbles bound [5]: 751 bubbles
- % more bubbles bound than with the 1% composition [6]: 31%
- Bubbles Bound [7]: 555 bubbles
- Bubbles Bound [8]: 726 bubbles
- Bubbles Bound [9]: 737 bubbles
- Bubbles Bound- 1% [9]: 1640 bubbles
- TKPPR-Bubbles bound [10]: 950 bubbles
- bubble binding [11]: 56 bubbles
- Bubbles Bound [12]: 953 bubbles
- Bubbles Bound % [12]: 100 % of control
- Bubbles Bound- 10% [13]: 1860 bubbles
- Bubbles Bound [14]: 7050 bubbles
- bubble binding [14]: 1120 bubbles
- TKPPR-Bubbles bound [15]: 1520 bubbles
- TKPPR-Bubbles bound [16]: 1360 bubbles

Binder: TKPPR [TKPPR (L-threonyl-L-lysyl-L-prolyl-L-prolyl-L-arginine)]
- % Inhibition (average, n = 11) [17]: 50.7%
- Bubbles Bound- 1%, in presence of competitor [18]: 4 bubbles
- Bubbles Bound % in presence of competitor [19]: 16 % of control
- Bubbles Bound- 5%, in presence of competitor [20]: 12 bubbles
- Average % Inhibition [21]: 82%
- Bubbles Bound- D56 Formulation, in presence of competitor [22]: 833 bubbles
- % Inhibition (average, n = 11) [23]: 62%
- HAEC bubbles bound in presence of competitor [24]: 58 bubbles
- Bubbles Bound- 1%, in presence of competitor [25]: 4 bubbles
- IC50 (VEGF receptors on HUVECs): 250 µM
- Bubbles Bound- 10%, in presence of competitor [26]: 66 bubbles
- % more bubbles bound with competitor [27]: 19%
- Bubbles Bound in presence of competitor [28]: 17 bubbles
- Bubbles Bound- 1%, in presence of competitor [29]: 10 bubbles
- Bubbles Bound- 10%, in presence of competitor [30]: 1090 bubbles
- Bubbles Bound- D56 Formulation, in presence of competitor [31]: 718 bubbles
- % Inhibition (average, n = 11) [32]: 70.6%
- Bubbles Bound in presence of competitor [33]: 56 bubbles
- Bubbles Bound- D47 Formulation, in presence of competitor [33]: 9 bubbles
- Bubbles Bound in presence of competitor [34]: 106 bubbles
- Bubbles Bound- D47 Formulation, in presence of competitor [34]: 75 bubbles
- RAEC bubbles bound in presence of competitor [35]: 21 bubbles
- Average % Inhibition [36]: 92.7%
- Bubbles Bound- 5%, in presence of competitor [37]: 1340 bubbles
- Average % Inhibition [38]: 93.7%
- % Inhibition (average, n = 11) [39]: 50.5%
- Bubbles Bound- 5%, in presence of competitor [40]: 13 bubbles
- % Inhibition (average, n = 11) [41]: 30.8%
- Bubbles Bound- 5%, in presence of competitor [42]: 440 bubbles
- % inhibition of bubble binding [43]: 82.7%
- Bubbles Bound- D56 Formulation, in presence of competitor [44]: 888 bubbles
- Bubbles Bound- D56 Formulation, in presence of competitor [45]: 462 bubbles
- Bubbles Bound- 10%, in presence of competitor [46]: 399 bubbles
- % Inhibition (average, n = 11) [47]: 72.2%
- Bubbles Bound- 1%, in presence of competitor [48]: 5 bubbles
- Bubbles Bound in presence of competitor [49]: 790 bubbles
- Bubbles Bound- 10%, in presence of competitor [50]: 857 bubbles
- Average % Inhibition [51]: 45.7%
- Bubbles Bound- D47 Formulation, in presence of competitor [52]: 1240 bubbles
- Average % Inhibition [53]: 79.6%
- Bubbles Bound in presence of competitor [54]: 528 bubbles
- Bubbles Bound- D47 Formulation, in presence of competitor [54]: 535 bubbles
